# Measured values published in paper doi:10.1101/2021.05.10.443412 (bioRxiv, 2021).
# B1: Mint3NT, N-terminal fragment (1-214) of Mint3 (domain or fragment)
# chain: MDFPTISRSPSGPPAMDLEGPRDILVPSEDLTPDSQWDPMPGGPGSLSRMELDESSLQELVQQFEALPGDLVGPSPGGAPCPLHIATGHGLASQEIADAHGLLSAEAGRDDLLGLLHCEECPPSQTGPEEPLEPAPRLLQPPEDPDEDSDSPEWVEGASAEQEGSRSSSSSPEPWLETVPLVTPEEPPAGAQSPETLASYPAPQEVPGPCDHED
# B2: Mint3NTmut (domain or fragment)
# chain: MDFPTISRSPSGPPAMDLEGPRDILVPSEDLTPDSQWDPMPGGPGSLSRMELDESSLQELVQQFEALPGDLVGPSPGGAPCPLHIATGHGLASQEIADAHAAASAAAGRDDLLGLLHCEECPPSQTGPEEPLEPAPRLLQPPEDPDEDSDSPEWVEGASAEQEGSRSSSSSPEPWLETVPLVTPEEPPAGAQSPETLASYPAPQEVPGPCDHED
# B3: Mint3 (1-117) (domain or fragment)
# chain: MDFPTISRSPSGPPAMDLEGPRDILVPSEDLTPDSQWDPMPGGPGSLSRMELDESSLQELVQQFEALPGDLVGPSPGGAPCPLHIATGHGLASQEIADAHGLLSAEAGRDDLLGLLH
# B4: short peptide of Mint3 (93-117) (peptide)
# chain: SQEIADAHGLLSAEAGRDDLLGLLH
# B5: Mint3 fragment (1-92) (domain or fragment)
# chain: MDFPTISRSPSGPPAMDLEGPRDILVPSEDLTPDSQWDPMPGGPGSLSRMELDESSLQELVQQFEALPGDLVGPSPGGAPCPLHIATGHGLA
# How the values were obtained:
# Experiment in all cases: ITC
# FIH-1 Y71A = FIH-1 Y71A (human, UniProt Q9NWT6 1-349, Tyr71 replaced with Ala)
# FIH-1 K75A = FIH-1 K75A (human, UniProt Q9NWT6 1-349, Lys75 replaced with Ala)
# FIH-1 E79A = FIH-1 E79A (human, UniProt Q9NWT6 1-349, Glu79 replaced with Ala)
# FIH-1 N171A = FIH-1 N171A (human, UniProt Q9NWT6 1-349, Asn171 replaced with Ala)
# FIH-1 E29A = FIH-1 E29A (human, UniProt Q9NWT6 1-349, Glu29 replaced with Ala)
# FIH-1 D248A = FIH-1 D248A (human, UniProt Q9NWT6 1-349, Asp248 replaced with Ala)
# FIH-1 E250A = FIH-1 E250A (human, UniProt Q9NWT6 1-349, Glu250 replaced with Ala)
# [1] = molecular target: factor inhibiting HIF-1 (FIH-1), full-length (human, UniProt Q9NWT6 1-349)
# factor inhibiting HIF-1 (FIH-1), full-length, sequence (Q9NWT6 whole entry): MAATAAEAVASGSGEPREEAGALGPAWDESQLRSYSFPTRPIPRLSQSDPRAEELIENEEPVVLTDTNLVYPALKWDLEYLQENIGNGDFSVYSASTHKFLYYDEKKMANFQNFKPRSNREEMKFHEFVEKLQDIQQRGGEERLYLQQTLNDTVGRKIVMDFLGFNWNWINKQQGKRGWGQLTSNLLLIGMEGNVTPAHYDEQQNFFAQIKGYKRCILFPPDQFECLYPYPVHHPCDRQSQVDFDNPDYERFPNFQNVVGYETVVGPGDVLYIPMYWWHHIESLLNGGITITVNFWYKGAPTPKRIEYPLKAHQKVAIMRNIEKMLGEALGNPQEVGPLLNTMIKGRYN
# FIH-1 K75A, sequence (Q9NWT6 whole entry K75A): as the sequence (Q9NWT6 whole entry) above, with K75A counted along it
# FIH-1 D248A, sequence (Q9NWT6 whole entry D248A): as the sequence (Q9NWT6 whole entry) above, with D248A counted along it
# FIH-1 E79A, sequence (Q9NWT6 whole entry E79A): as the sequence (Q9NWT6 whole entry) above, with E79A counted along it
# FIH-1 N171A, sequence (Q9NWT6 whole entry N171A): as the sequence (Q9NWT6 whole entry) above, with N171A counted along it
# FIH-1 E29A, sequence (Q9NWT6 whole entry E29A): as the sequence (Q9NWT6 whole entry) above, with E29A counted along it
# FIH-1 E250A, sequence (Q9NWT6 whole entry E250A): as the sequence (Q9NWT6 whole entry) above, with E250A counted along it
# FIH-1 Y71A, sequence (Q9NWT6 whole entry Y71A): as the sequence (Q9NWT6 whole entry) above, with Y71A counted along it
Binder,dH [1],stoichiometry N [1],Kd [1],other results
B1,-32.2 ± 0.7 kcal/mol,0.48 ± 0.02,–,binding result (FIH-1 Y71A): binds; binding result (FIH-1 K75A): binds; binding result (FIH-1 E79A): binds; binding result (FIH-1 N171A): binds; binding result (FIH-1 E29A): binds; binding result (FIH-1 D248A): binds; binding result (FIH-1 E250A): binds
B2,-13.9 kcal/mol,~0.5,1310 nM,–
B3,–,~0.5,650 ± 70 nM,–
B4,–,~0.5,3000 ± 600 nM,–
B5,–,~0.5,–,–
